The record followed here is patent US20230063965A1 (YEDA RESEARCH AND DEVELOPMENT, published 2023).

Test [1] deals with T1, human FcγRIIIA soluble ectodomain (ELISA) (human, UniProt P08637 17-208).
T1 construct: extracellular domain
As to the kind of experiment: FcγR binding ELISA, plate-bound human FcγRIIIA soluble ectodomain, serially diluted IgG, Δabsorbance 450 nm; panel FcgR3A. The method, then: (§1) ELISA plates (Nunc) were coated overnight at 4° C. with recombinant PD-L1 (1 μg/mL/well). All sequential steps were performed at room temperature in 2% BSA. After being washed, the plates were blocked for 1 hr with 1×PBS with 2% Bovine serum Albumin and were subsequently incubated for 1 hr with serially diluted IgGs. After washing, plates were incubated for 1 hr with HRP-conjugated anti-mouse IgG (Jackson ImmunoResearch). Detection was performed by TMB Soluble Reagent (ScyTek Laboratories) and reactions stopped with the addition of 0.18 M sulfuric acid. Absorbance at 450 nm was immediately recorded using a SpectraMax Plus spectrophotometer (Molecular Devices) and background absorbance from negative control samples was subtracted. […] After washing, plates were incubated for 1 hr with streptavidin-HRP (Jackson ImmunoResearch). (2) For FcγR binding ELISA, human FcγRs soluble ectodomains (2 μg/ml/well) were immobilized to the plate. After being washed, the plates were blocked for 40 minutes with 1×PBS with 10% Bovine serum Albumin and were subsequently incubated for 2 hours with serially diluted IgGs.
In general terms: In an ELISA, binding on a coated surface is turned into a signal by an enzyme label.

The target of test [2] is T2, hFcγRII^F158 (so in the source); read as hFcγRIIIA F158) (human, UniProt P08637 17-208).
T2 construct: The head is printed 'hFcγRII^F158'; also called huFcγRIIIA
T2 sequence (P08637 17-208 limits assumed): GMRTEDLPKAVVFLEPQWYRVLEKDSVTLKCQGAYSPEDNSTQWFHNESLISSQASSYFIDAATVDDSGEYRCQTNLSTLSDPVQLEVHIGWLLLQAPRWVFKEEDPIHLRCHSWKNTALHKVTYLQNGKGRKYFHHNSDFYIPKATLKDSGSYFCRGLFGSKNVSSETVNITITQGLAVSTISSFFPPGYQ
As to the kind of experiment: SPR, immobilized FcγRs, soluble IgGs. On the technique in general: SPR reads the build-up and loss of mass on a sensor chip optically.

For test [3], the target named is T3, hFcγRIIB (human, UniProt P31994 43-217, limits assumed).
T3 construct: also called CD32B; huFcγRIIB
T3 sequence (looked up): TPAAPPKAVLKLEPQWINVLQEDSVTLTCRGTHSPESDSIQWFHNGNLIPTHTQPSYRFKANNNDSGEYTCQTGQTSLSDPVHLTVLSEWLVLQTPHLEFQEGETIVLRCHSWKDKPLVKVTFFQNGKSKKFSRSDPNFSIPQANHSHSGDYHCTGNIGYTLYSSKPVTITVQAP
As to the kind of experiment: SPR, immobilized FcγRs, soluble IgGs.

A further test has as its target T4, hFcγRIIA R131 (human, UniProt P12318 34-218, limits assumed).
T4 construct: R131 allotype as printed (131 is mature-protein numbering)
T4 sequence (looked up): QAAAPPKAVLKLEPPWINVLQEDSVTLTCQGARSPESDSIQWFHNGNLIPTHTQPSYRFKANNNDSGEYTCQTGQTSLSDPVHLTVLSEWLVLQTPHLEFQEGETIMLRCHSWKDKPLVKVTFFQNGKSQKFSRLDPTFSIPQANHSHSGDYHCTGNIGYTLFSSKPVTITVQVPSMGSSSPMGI
In words: SPR, immobilized FcγRs, soluble IgGs.

Another test has as its target T5, FcgR1 (human, UniProt P12314).
T5 construct: soluble ectodomain; also called human FcγRI soluble ectodomain (ELISA); FcγRI
As to the kind of experiment: FcγR binding ELISA, plate-bound human FcγRI soluble ectodomain, serially diluted IgG, Δabsorbance 450 nm; panel FcgR1. On the procedure: as §1

For test [4], the target named is T6, human FcγRIIIB soluble ectodomain (ELISA) (human, UniProt O75015 17-200, limits assumed).
T6 construct: extracellular domain
T6 sequence (O75015 17-200 limits assumed): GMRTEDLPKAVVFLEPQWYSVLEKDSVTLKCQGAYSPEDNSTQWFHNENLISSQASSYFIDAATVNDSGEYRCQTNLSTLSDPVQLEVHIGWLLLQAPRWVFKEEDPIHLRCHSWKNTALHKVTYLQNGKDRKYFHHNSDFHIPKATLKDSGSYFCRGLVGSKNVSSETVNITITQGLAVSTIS
As to the kind of experiment: FcγR binding ELISA, plate-bound human FcγRIIIB soluble ectodomain, serially diluted IgG, Δabsorbance 450 nm; panel Fcg3B. On the procedure:
as §1

Test [5] addresses T3, hFcγRIIB. As to the kind of experiment: FcγR binding ELISA, plate-bound human FcγRIIB soluble ectodomain, serially diluted IgG, Δabsorbance 450 nm; panel Fcg2B. On the procedure:
as §1

T5 sequence (P12314 16-292 limits assumed): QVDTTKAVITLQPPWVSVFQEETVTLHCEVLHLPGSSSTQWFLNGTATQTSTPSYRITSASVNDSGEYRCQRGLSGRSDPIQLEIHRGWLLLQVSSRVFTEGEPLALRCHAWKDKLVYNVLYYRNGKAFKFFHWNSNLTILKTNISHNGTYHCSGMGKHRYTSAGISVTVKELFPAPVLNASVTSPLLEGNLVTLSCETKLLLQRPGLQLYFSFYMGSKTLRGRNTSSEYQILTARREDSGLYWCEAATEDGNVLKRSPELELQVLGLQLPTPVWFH
T1 sequence (P08637 17-208): as the sequence (P08637 17-208 limits assumed) above

B1: Avelumab Afucosylated Fc variant (antibody, human IgG1, lambda)
heavy: not shown
light: QSALTQPASVSGSPGQSITISCTGTSSDVGGYNYVSWYQQHPGKAPKLMIYDVSNRPSGVSNRFSGSKSGNTASLTISGLQAEDEADYYCSSYTSSSTRVFGTGTKVTVLGQPKANPTVTLFPPSSEELQANKATLVCLISDFYPGAVTVAWKADGSPVKAGVETTKPSKQSNNKYAASSYLSLTPEQWKSHRSYSCQVTHEGSTVEKTVAPTECS
modifications: afucosylated Fc glycan (N297, EU); fucose content of about 28%
notes: also called non-fucosylated Fc glycan
A word on the EC50 (read off the curve): it is the concentration at which the effect is half-maximal. High values mean weaker potency, low ones greater potency. The Kd is the equilibrium constant for the complex coming apart. Read a high Kd as weaker binding. As to B1, the “EC50 (read off the curve)” value in test [1] was around 2 µg/mL. The “Fold (KD(IgG1)/KD(Fc variant))” value in test [2] was 11.6 fold; in the test with hFcγRIIB [3], 1.1 fold; with hFcγRIIA R131 it was 1 fold. For the same molecule, the equilibrium dissociation constant (Kd) in test [2] turned out to be 578 nM; in the test with hFcγRIIB [3] it was 2800 nM; in the test with hFcγRIIA R131, 1160 nM. Moreover, in the test with FcgR1, the binding result was “binds”.

B2: Avelumab IgG1 (wild type human IgG1) (antibody)
heavy: not shown
light: QSALTQPASVSGSPGQSITISCTGTSSDVGGYNYVSWYQQHPGKAPKLMIYDVSNRPSGVSNRFSGSKSGNTASLTISGLQAEDEADYYCSSYTSSSTRVFGTGTKVTVLGQPKANPTVTLFPPSSEELQANKATLVCLISDFYPGAVTVAWKADGSPVKAGVETTKPSKQSNNKYAASSYLSLTPEQWKSHRSYSCQVTHEGSTVEKTVAPTECS
notes: Made recombinantly in Expi293 cells
As to B2, the “Fold (KD(IgG1)/KD(Fc variant))” value (in test [2]; with hFcγRIIB [3]; with hFcγRIIA R131) was 1 fold throughout. Moreover, the Kd is 6700 nM in test [2], 3010 nM with hFcγRIIB [3] and 1160 nM with hFcγRIIA R131. Also, the binding result with FcgR1 is recorded as “binds”.

B3: Avelumab N297A (FcγR-binding null IgG1) (antibody, name in EU numbering)
heavy: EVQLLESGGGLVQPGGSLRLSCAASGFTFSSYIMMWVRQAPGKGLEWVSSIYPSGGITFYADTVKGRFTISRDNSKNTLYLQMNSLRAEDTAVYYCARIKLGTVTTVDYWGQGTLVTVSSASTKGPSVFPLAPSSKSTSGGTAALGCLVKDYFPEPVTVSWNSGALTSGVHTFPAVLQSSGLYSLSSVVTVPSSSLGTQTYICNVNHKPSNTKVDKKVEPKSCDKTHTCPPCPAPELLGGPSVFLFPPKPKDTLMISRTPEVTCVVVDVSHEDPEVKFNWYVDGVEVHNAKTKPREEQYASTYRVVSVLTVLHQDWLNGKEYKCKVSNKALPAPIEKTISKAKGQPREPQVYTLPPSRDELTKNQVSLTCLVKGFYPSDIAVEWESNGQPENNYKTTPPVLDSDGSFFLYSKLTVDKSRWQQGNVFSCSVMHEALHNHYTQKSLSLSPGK
light: QSALTQPASVSGSPGQSITISCTGTSSDVGGYNYVSWYQQHPGKAPKLMIYDVSNRPSGVSNRFSGSKSGNTASLTISGLQAEDEADYYCSSYTSSSTRVFGTGTKVTVLGQPKANPTVTLFPPSSEELQANKATLVCLISDFYPGAVTVAWKADGSPVKAGVETTKPSKQSNNKYAASSYLSLTPEQWKSHRSYSCQVTHEGSTVEKTVAPTECS
notes: also called Fc-silent (N297A) variant
On to B3, for which the binding result in test [1] is reported as “no binding (tested: log 1.2 (about 16 µg/ml))”; in test [2], “no binding”; in the test with hFcγRIIA R131, “no binding”; in test [4], “no binding (tested: log 2 (100 µg/ml))”; with hFcγRIIB [5] it was “no binding (tested: log 2 (100 µg/ml))”; with FcgR1, “binds”.

B4: Avelumab G236A (antibody, human IgG1, lambda)
heavy: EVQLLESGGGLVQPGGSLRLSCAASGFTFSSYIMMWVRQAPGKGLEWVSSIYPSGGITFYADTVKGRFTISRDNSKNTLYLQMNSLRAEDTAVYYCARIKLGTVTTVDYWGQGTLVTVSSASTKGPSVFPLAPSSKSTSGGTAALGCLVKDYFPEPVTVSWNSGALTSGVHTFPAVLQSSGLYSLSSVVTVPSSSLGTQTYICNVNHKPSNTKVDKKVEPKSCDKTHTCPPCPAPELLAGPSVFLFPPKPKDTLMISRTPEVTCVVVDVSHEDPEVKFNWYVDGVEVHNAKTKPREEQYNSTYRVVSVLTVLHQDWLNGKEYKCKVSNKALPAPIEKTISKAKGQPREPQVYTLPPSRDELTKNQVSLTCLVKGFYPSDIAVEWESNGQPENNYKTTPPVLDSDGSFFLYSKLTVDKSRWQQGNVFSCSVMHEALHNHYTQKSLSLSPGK
light: QSALTQPASVSGSPGQSITISCTGTSSDVGGYNYVSWYQQHPGKAPKLMIYDVSNRPSGVSNRFSGSKSGNTASLTISGLQAEDEADYYCSSYTSSSTRVFGTGTKVTVLGQPKANPTVTLFPPSSEELQANKATLVCLISDFYPGAVTVAWKADGSPVKAGVETTKPSKQSNNKYAASSYLSLTPEQWKSHRSYSCQVTHEGSTVEKTVAPTECS
Regarding B4, the results for the “Fold (KD(IgG1)/KD(Fc variant))” value (in test [2]; with hFcγRIIB [3]; with hFcγRIIA R131) were 1.7 fold, 0.7 fold and 9.3 fold, respectively. In addition, the equilibrium dissociation constant (Kd) in test [2] was 3900 nM; in the test with hFcγRIIB [3], 4380 nM; with hFcγRIIA R131 it was 120 nM.

B5: Avelumab GASDALIE (G236A/S239D/A330L/I332E) (antibody, human IgG1, lambda)
heavy: EVQLLESGGGLVQPGGSLRLSCAASGFTFSSYIMMWVRQAPGKGLEWVSSIYPSGGITFYADTVKGRFTISRDNSKNTLYLQMNSLRAEDTAVYYCARIKLGTVTTVDYWGQGTLVTVSSASTKGPSVFPLAPSSKSTSGGTAALGCLVKDYFPEPVTVSWNSGALTSGVHTFPAVLQSSGLYSLSSVVTVPSSSLGTQTYICNVNHKPSNTKVDKKVEPKSCDKTHTCPPCPAPELLAGPDVFLFPPKPKDTLMISRTPEVTCVVVDVSHEDPEVKFNWYVDGVEVHNAKTKPREEQYNSTYRVVSVLTVLHQDWLNGKEYKCKVSNKALPLPEEKTISKAKGQPREPQVYTLPPSRDELTKNQVSLTCLVKGFYPSDIAVEWESNGQPENNYKTTPPVLDSDGSFFLYSKLTVDKSRWQQGNVFSCSVMHEALHNHYTQKSLSLSPGK
light: QSALTQPASVSGSPGQSITISCTGTSSDVGGYNYVSWYQQHPGKAPKLMIYDVSNRPSGVSNRFSGSKSGNTASLTISGLQAEDEADYYCSSYTSSSTRVFGTGTKVTVLGQPKANPTVTLFPPSSEELQANKATLVCLISDFYPGAVTVAWKADGSPVKAGVETTKPSKQSNNKYAASSYLSLTPEQWKSHRSYSCQVTHEGSTVEKTVAPTECS
notes: also called GASDLIE
On to B5, for which the “Fold (KD(IgG1)/KD(Fc variant))” value came out at 29.5 fold in test [2], 14 fold in the test with hFcγRIIB [3] and 24.5 fold with hFcγRIIA R131. Besides, the Kd in test [2] was 227 nM; in the test with hFcγRIIB [3], 230 nM; in the test with hFcγRIIA R131, 47 nM.

B6: Avelumab ALIE (A330L/I332E) (antibody, human IgG1, lambda)
heavy: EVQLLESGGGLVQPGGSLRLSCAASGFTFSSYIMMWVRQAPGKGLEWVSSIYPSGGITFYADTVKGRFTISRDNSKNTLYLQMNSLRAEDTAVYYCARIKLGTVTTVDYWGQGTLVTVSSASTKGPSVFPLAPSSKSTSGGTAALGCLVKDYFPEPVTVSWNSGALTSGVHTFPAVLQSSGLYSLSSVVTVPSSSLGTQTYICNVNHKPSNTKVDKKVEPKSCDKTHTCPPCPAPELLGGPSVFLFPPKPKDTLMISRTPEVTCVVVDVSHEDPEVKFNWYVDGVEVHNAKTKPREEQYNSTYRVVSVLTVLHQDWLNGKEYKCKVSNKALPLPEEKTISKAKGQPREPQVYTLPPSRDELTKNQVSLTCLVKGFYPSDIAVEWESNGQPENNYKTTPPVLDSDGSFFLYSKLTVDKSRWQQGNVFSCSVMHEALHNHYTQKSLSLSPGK
light: QSALTQPASVSGSPGQSITISCTGTSSDVGGYNYVSWYQQHPGKAPKLMIYDVSNRPSGVSNRFSGSKSGNTASLTISGLQAEDEADYYCSSYTSSSTRVFGTGTKVTVLGQPKANPTVTLFPPSSEELQANKATLVCLISDFYPGAVTVAWKADGSPVKAGVETTKPSKQSNNKYAASSYLSLTPEQWKSHRSYSCQVTHEGSTVEKTVAPTECS
For B6, the results for the “Fold (KD(IgG1)/KD(Fc variant))” value (in test [2]; with hFcγRIIB [3]; with hFcγRIIA R131) were 5.4 fold, 1.1 fold and 1.2 fold, respectively. The dissociation constant Kd was 2800 nM in the test with hFcγRIIB [3] and 950 nM with hFcγRIIA R131.
